Test results taken from patent publication US20230227537A1.
Several values for one entry are separate records, joined by “and”; a condition that tells them apart may be missing. Equal values may be shown once.

What was measured:
[1] = target: recombinant prefusion stabilized SARS-CoV-2-2P spike protein (SARS-CoV-2) (UniProt P0DTC2)
[2] = target: Mouse IgG1 Fc fused SARS-CoV-2 RBD (Sino Biological) (SARS-CoV-2; mouse) (UniProt P0DTC2)

Row | Substance | EC50 [1] [µg/mL] | % Signal decrease over 8 min dissociation [2] | Kd [2] | kon [2] | koff [2]
1 | D72-02: VHH72-GS-hIgG1hinge-hIgG1Fc (Fc fusion) | 0.0223 |  |  |  | 
2 | VHH72-T60W-hIgG1 Fc (P. pastoris supernatant) (Fc fusion) |  | 13% and 15% | 75.7 nM and 53.1 nM | 41500 M⁻¹ s⁻¹ and 49700 M⁻¹ s⁻¹ | 
3 | VHH72_D61Q - (GGGGS)x2-hIgG1.Hinge-hIgG1.Fc (Fc fusion) |  | 8% and 10% | 0.0661 nM and 0.0642 nM | 2.76e+06 M⁻¹ s⁻¹ and 3.19e+06 M⁻¹ s⁻¹ | 0.000183 s⁻¹ and 0.000205 s⁻¹
4 | VHH72_V100L - (GGGGS)x2-hIgG1.Hinge-hIgG1.Fc (Fc fusion) |  | 23% and 25% | 0.076 nM and 0.0771 nM | 7.34e+06 M⁻¹ s⁻¹ and 8.26e+06 M⁻¹ s⁻¹ | 0.000557 s⁻¹ and 0.000637 s⁻¹
